Measurements reported in patent publication US20140056893A1 (Eli Lilly, published 2014).

Target: human glucagon-like peptide 1 receptor (hGLP-1R) (human, UniProt P43220 24-463)
Test: cell-based or functional assay

B1: Homodimeric protein wherein the amino acid sequence of each polypeptide of said protein is SEQ ID NO: 1 (Fc fusion)
chain: HGEGTFTSDVSSYLEEQAAKEFIAWLVAGGGGGGGSGGGGSGGGGSESKYGPPCPPCPAPEAAGGPSVFLFPPKPKDTLMISRTPEVTCVVVDVSCEDPEVQFNWYVDGVEVHNAKTKPREEQFNSTYRVVSVLTVLHQDWLNGKEYKCKVSNKGLPSSIEKTISKAKGQPREPQVYTLPPSCEEMTKNQVSLTCLVKGFYPSDIAVEWESNGQPENNYKTTPPVLDSDGSFFLYSRLTVDKSRWQEGNVFSCSVMHEALHNHYTQKSLSLSLGGGGGSGGGGSGGGGSAHPIPDSSPLLQFGGQVRQRYLYTDDAQQTECHLEIREDGTVGCAADQSPESLLQLKALKPGVIQILGVKTSRFLCQRPDGALYGSLHFDPEACSFREDLKEDGYNVYQSEAHGLPLHLPGDKSPHRKPAPRGPARFLPLPGLPPALPEPPGILAPQPPDVGSSDPLRLVEPSCLRSPSFE
In vitro potency (EC50), hGLP-1R-stimulated cAMP functional assay (Alpha Screen) in hGLP-1R-HEK293 cells: 0.067 nM
